Data taken from patent US20230295310A1 (ABCELLERA BIOLOGICS, published 2023).

B1: GOMP001_bsAb_046 (bispecific antibody, human IgG1, kappa, L234A L235A)
heavy 1: QVQLVQSGAEVKKPGASVKVSCKASGYTFTSHWMHWVRKAPGQGLEWIGEFNPSNGRTNYNEEFKSKATMTVDTSTNTAYMELSSLRSEDTAVYYCASRDYDYDGRYFDYWGQGTLVTVSSASTKGPSVFPLAPSSKSTSGGTAALGCLVADYFPEPVTVSWNSGALTSGVHTFPAVLQSSGLYSLSSVVTVPSSSLGTQTYICNVNHKPSNTKVDEKVEPKSCDKTHTCPPCPAPEAAGGPSVFLFPPKPKDTLMISRTPEVTCVVVDVSHEDPEVKFNWYVDGVEVHNAKTKPREEQYNSTYRVVSVLTVLHQDWLNGKEYKCKVSNKALPAPIEKTISKAKGQPREPQVYTLPPSREEMTDNQVSLTCLVKGFYPSDIAVEWESNGQPENNYKTTPPVLMSDGSFFLASKLTVDKSRWQQGNVFSCSVMHEALHNHYTQKSLSLSPG
light 1: not shown
heavy 2: QVQLVQSGAEVKKPGASVKVSCKASGYTFTSHWMHWVRYAPGQGLEWIGEFNPSNGRTNYNEKFKSKATMTVDTSTNTAYMELSSLRSEDTAVYYCASRDYDYDGRYFDYWGRGTLVTVSSASTKGPSVFPLAPSSKSTSGGTAALGCLVKDYFPEPVTVSWNSGALTSGVHTFPAVLQSSGLYSLSSVVTVPSSSLGTQTYICNVNHKPSNTKVDKKVEPKSCDKTHTCPPCPAPEAAGGPSVFLFPPKPKDTLMISRTPEVTCVVVDVSHEDPEVKFNWYVDGVEVHNAKTKPREEQYNSTYRVVSVLTVLHQDWLNGKEYKCKVSNKALPAPIEKTISKAKGQPRRPRVYTLPPSREEMTKNQVSLVCLVKGFYPSDIAVEWESNGQPENNYKTTPPVLDSDGSFFLYSVLTVDKSRWQQGNVFSCSVMHEALHNHYTQKSLSLSPG
light 2: DIQMTQSPSSLSASVGDRVTITCSASSSVTYMYWYQRKPGDAPKLLIYDTSNLASGVPSRFSGSGSGTDYTFTISSLQPEDIATYYCQQWSSHIFTFGQGTKVEIKRTVAAPSVFIFPPSDEQLKSGTASVVCLLNNFYPREAKVQWKVDNALQSGNSQESVTEQDSKDSTYSLSSTLTLSKADYEKHKVYACEVTHQGLSSPVTKSFNRGEC
B2: GOMP001_bsAb_055 (bispecific antibody, human IgG1, kappa, L234A L235A)
heavy 1: QVQLVQSGAEVKKPGASVKVSCKASGYTFTSHWMHWVRKAPGQGLEWIGEFNPSNGRTNYNEEFKSKATMTVDTSTNTAYMELSSLRSEDTAVYYCASRDYDYDGRYFDYWGQGTLVTVSSASTKGPSVFPLAPSSKSTSGGTAALGCLVADYFPEPVTVSWNSGALTSGVHTFPAVLQSSGLYSLSSVVTVPSSSLGTQTYICNVNHKPSNTKVDEKVEPKSCDKTHTCPPCPAPEAAGGPSVFLFPPKPKDTLMISRTPEVTCVVVDVSHEDPEVKFNWYVDGVEVHNAKTKPREEQYNSTYRVVSVLTVLHQDWLNGKEYKCKVSNKALPAPIEKTISKAKGQPREPQVYTLPPSREEMTDNQVSLTCLVKGFYPSDIAVEWESNGQPENNYKTTPPVLMSDGSFFLASKLTVDKSRWQQGNVFSCSVMHEALHNHYTQKSLSLSPG
light 1: RIQMTQSPSSLSASVGDRVTITCSASSSVTYMYWYQDKPGKAPKLLIYDTSNLASGVPSRFSGSGSGTDYTFTISSLQPEDIATYYCQQWSSHIFTFGQGTKVEIKRTVAAPSVFIFPPSDKQLKSGTARVVCLLNNFYPREAKVQWKVDNALQSGNSQESVTEQDSKDSTYSLSSTLTLSKADYEKHKVYACEVTHQGLSSPVTKSFNRGEC
heavy 2: EVNLVESGGGLVQPGRSLRLSCAASGFTFDDYTMHWVRYVPGKGLEWVSNISWNSGSLGYADRVKGRFTISRDNAKDSLYLQMNSLRVEDTALYYCAKDSSGYGHYNSYYMDVWGRGTTVTVSSASTKGPSVFPLAPSSKSTSGGTAALGCLVKDYFPEPVTVSWNSGALTSGVHTFPAVLQSSGLYSLSSVVTVPSSSLGTQTYICNVNHKPSNTKVDKKVEPKSCDKTHTCPPCPAPEAAGGPSVFLFPPKPKDTLMISRTPEVTCVVVDVSHEDPEVKFNWYVDGVEVHNAKTKPREEQYNSTYRVVSVLTVLHQDWLNGKEYKCKVSNKALPAPIEKTISKAKGQPRRPRVYTLPPSREEMTKNQVSLVCLVKGFYPSDIAVEWESNGQPENNYKTTPPVLDSDGSFFLYSVLTVDKSRWQQGNVFSCSVMHEALHNHYTQKSLSLSPG
light 2: DIQMTQSPSSLSASVGDRVTITCRASQSIRNYLNWYQRKPGDAPKVLIYSASSLQSGVPSRFSGSGSGTDFTLTISSLQPEDFASFYCQQTYSTPITFGQGTRLEIKRTVAAPSVFIFPPSDEQLKSGTASVVCLLNNFYPREAKVQWKVDNALQSGNSQESVTEQDSKDSTYSLSSTLTLSKADYEKHKVYACEVTHQGLSSPVTKSFNRGEC
B3: GOMP001_bsAb_051 (bispecific antibody, human IgG1, kappa, L234A L235A)
heavy 1: QVQLVQSGAEVKKPGASVKVSCKASGYTFTSHWMHWVRKAPGQGLEWIGEFNPSNGRTNYNEEFKSKATMTVDTSTNTAYMELSSLRSEDTAVYYCASRDYDYDGRYFDYWGQGTLVTVSSASTKGPSVFPLAPSSKSTSGGTAALGCLVADYFPEPVTVSWNSGALTSGVHTFPAVLQSSGLYSLSSVVTVPSSSLGTQTYICNVNHKPSNTKVDEKVEPKSCDKTHTCPPCPAPEAAGGPSVFLFPPKPKDTLMISRTPEVTCVVVDVSHEDPEVKFNWYVDGVEVHNAKTKPREEQYNSTYRVVSVLTVLHQDWLNGKEYKCKVSNKALPAPIEKTISKAKGQPREPQVYTLPPSREEMTDNQVSLTCLVKGFYPSDIAVEWESNGQPENNYKTTPPVLMSDGSFFLASKLTVDKSRWQQGNVFSCSVMHEALHNHYTQKSLSLSPG
light 1: RIQMTQSPSSLSASVGDRVTITCSASSSVTYMYWYQDKPGKAPKLLIYDTSNLASGVPSRFSGSGSGTDYTFTISSLQPEDIATYYCQQWSSHIFTFGQGTKVEIKRTVAAPSVFIFPPSDKQLKSGTARVVCLLNNFYPREAKVQWKVDNALQSGNSQESVTEQDSKDSTYSLSSTLTLSKADYEKHKVYACEVTHQGLSSPVTKSFNRGEC
heavy 2: LRSDDTAVYYCARGVRGNYYYYYMDVWGRGTTVTVSSASTKGPSVFPLAPSSKSTSGGTAALGCLVKDYFPEPVTVSWNSGALTSGVHTFPAVLQSSGLYSLSSVVTVPSSSLGTQTYICNVNHKPSNTKVDKKVEPKSCDKTHTCPPCPAPEAAGGPSVFLFPPKPKDTLMISRTPEVTCVVVDVSHEDPEVKFNWYVDGVEVHNAKTKPREEQYNSTYRVVSVLTVLHQDWLNGKEYKCKVSNKALPAPIEKTISKAKGQPRRPRVYTLPPSREEMTKNQVSLVCLVKGFYPSDIAVEWESNGQPENNYKTTPPVLDSDGSFFLYSVLTVDKSRWQQGNVFSCSVMHEALHNHYTQKSLSLSPG
light 2: EIVLTQSPDFQSVTPKEKVTITCRASQSIGSKLHWYQRKPDDSPKLLIKYASQSFSGVPSRFSGSGSGTDFNLTINSLEAEDAATFYCHQSSGLPYTFGQGTKLEIKRTVAAPSVFIFPPSDEQLKSGTASVVCLLNNFYPREAKVQWKVDNALQSGNSQESVTEQDSKDSTYSLSSTLTLSKADYEKHKVYACEVTHQGLSSPVTKSFNRGEC
B4: GOMP001_bsAb_050 (bispecific antibody, human IgG1, kappa, L234A L235A)
heavy 1: QVQLVESGGGVVQPGRSLRLSCAASGFTFSTYGMHWVRYAPGKGLEWVAVIWYDGSHKYYADRVKGRFTISRDNSKKTLYLQMNSLRAEDTGIYYCARTGISGNMSYFYFDHWGRGILVTVSSASTKGPSVFPLAPSSKSTSGGTAALGCLVKDYFPEPVTVSWNSGALTSGVHTFPAVLQSSGLYSLSSVVTVPSSSLGTQTYICNVNHKPSNTKVDKKVEPKSCDKTHTCPPCPAPEAAGGPSVFLFPPKPKDTLMISRTPEVTCVVVDVSHEDPEVKFNWYVDGVEVHNAKTKPREEQYNSTYRVVSVLTVLHQDWLNGKEYKCKVSNKALPAPIEKTISKAKGQPRRPRVYTLPPSREEMTKNQVSLVCLVKGFYPSDIAVEWESNGQPENNYKTTPPVLDSDGSFFLYSVLTVDKSRWQQGNVFSCSVMHEALHNHYTQKSLSLSPG
light 1: not shown
heavy 2: QVQLVQSGAEVKKPGASVKVSCKASGYTFTSHWMHWVRYAPGQGLEWIGEFNPSNGRTNYNEKFKSKATMTVDTSTNTAYMELSSLRSEDTAVYYCASRDYDYDGRYFDYWGRGTLVTVSSASTKGPSVFPLAPSSKSTSGGTAALGCLVKDYFPEPVTVSWNSGALTSGVHTFPAVLQSSGLYSLSSVVTVPSSSLGTQTYICNVNHKPSNTKVDKKVEPKSCDKTHTCPPCPAPEAAGGPSVFLFPPKPKDTLMISRTPEVTCVVVDVSHEDPEVKFNWYVDGVEVHNAKTKPREEQYNSTYRVVSVLTVLHQDWLNGKEYKCKVSNKALPAPIEKTISKAKGQPRRPRVYTLPPSREEMTKNQVSLVCLVKGFYPSDIAVEWESNGQPENNYKTTPPVLDSDGSFFLYSVLTVDKSRWQQGNVFSCSVMHEALHNHYTQKSLSLSPG
light 2: DIQMTQSPSSLSASVGDRVTITCSASSSVTYMYWYQRKPGDAPKLLIYDTSNLASGVPSRFSGSGSGTDYTFTISSLQPEDIATYYCQQWSSHIFTFGQGTKVEIKRTVAAPSVFIFPPSDEQLKSGTASVVCLLNNFYPREAKVQWKVDNALQSGNSQESVTEQDSKDSTYSLSSTLTLSKADYEKHKVYACEVTHQGLSSPVTKSFNRGEC
B5: GOMP001_bsAb_049 (bispecific antibody, human IgG1, kappa, L234A L235A)
heavy 1: QVQLVQSGAEVKKPGASVKVSCKASGYTFTSHWMHWVRKAPGQGLEWIGEFNPSNGRTNYNEEFKSKATMTVDTSTNTAYMELSSLRSEDTAVYYCASRDYDYDGRYFDYWGQGTLVTVSSASTKGPSVFPLAPSSKSTSGGTAALGCLVADYFPEPVTVSWNSGALTSGVHTFPAVLQSSGLYSLSSVVTVPSSSLGTQTYICNVNHKPSNTKVDEKVEPKSCDKTHTCPPCPAPEAAGGPSVFLFPPKPKDTLMISRTPEVTCVVVDVSHEDPEVKFNWYVDGVEVHNAKTKPREEQYNSTYRVVSVLTVLHQDWLNGKEYKCKVSNKALPAPIEKTISKAKGQPREPQVYTLPPSREEMTDNQVSLTCLVKGFYPSDIAVEWESNGQPENNYKTTPPVLMSDGSFFLASKLTVDKSRWQQGNVFSCSVMHEALHNHYTQKSLSLSPG
light 1: RIQMTQSPSSLSASVGDRVTITCSASSSVTYMYWYQDKPGKAPKLLIYDTSNLASGVPSRFSGSGSGTDYTFTISSLQPEDIATYYCQQWSSHIFTFGQGTKVEIKRTVAAPSVFIFPPSDKQLKSGTARVVCLLNNFYPREAKVQWKVDNALQSGNSQESVTEQDSKDSTYSLSSTLTLSKADYEKHKVYACEVTHQGLSSPVTKSFNRGEC
heavy 2: QVQLVESGGGVVQPGRSLRLSCAASGFTFSTYGMHWVRYAPGKGLEWVAVIWYDGSHKYYADRVKGRFTISRDNSKKTLYLQMNSLRAEDTGIYYCARTGISGNMSYFYFDHWGRGILVTVSSASTKGPSVFPLAPSSKSTSGGTAALGCLVKDYFPEPVTVSWNSGALTSGVHTFPAVLQSSGLYSLSSVVTVPSSSLGTQTYICNVNHKPSNTKVDKKVEPKSCDKTHTCPPCPAPEAAGGPSVFLFPPKPKDTLMISRTPEVTCVVVDVSHEDPEVKFNWYVDGVEVHNAKTKPREEQYNSTYRVVSVLTVLHQDWLNGKEYKCKVSNKALPAPIEKTISKAKGQPRRPRVYTLPPSREEMTKNQVSLVCLVKGFYPSDIAVEWESNGQPENNYKTTPPVLDSDGSFFLYSVLTVDKSRWQQGNVFSCSVMHEALHNHYTQKSLSLSPG
light 2: not shown

What follows are binders tested against human EGFR, C-terminal eGFP-tagged, on CHO-K1 cells (human, UniProt P00533 25-1210) (assay: cell-based or functional assay).

Binder | EC50 CHO-K1 EGFR Low (nM); T cell activation bioassay, luciferase | EC50 CHO-K1 EGFR Med (nM); T cell activation bioassay, luciferase
B1 | 0.02 nM | 0.00409 nM
B2 | 0.119 nM | 0.0139 nM
B3 | 1.23 nM | 0.0922 nM
B4 | 1.67 nM | 0.0606 nM
B5 |  | 0.138 nM
